What all share (conditions): both partners purified
For experiment [1], the target named is T1, ethylene receptor ethylene response 1 (ETR1), wild type (Arabidopsis, UniProt P49333 1-738).
T1 construct: Solubilised in beta-D-dodecylmaltoside; also called sensor kinase ETR1; AtETR1
T1 sequence (looked up): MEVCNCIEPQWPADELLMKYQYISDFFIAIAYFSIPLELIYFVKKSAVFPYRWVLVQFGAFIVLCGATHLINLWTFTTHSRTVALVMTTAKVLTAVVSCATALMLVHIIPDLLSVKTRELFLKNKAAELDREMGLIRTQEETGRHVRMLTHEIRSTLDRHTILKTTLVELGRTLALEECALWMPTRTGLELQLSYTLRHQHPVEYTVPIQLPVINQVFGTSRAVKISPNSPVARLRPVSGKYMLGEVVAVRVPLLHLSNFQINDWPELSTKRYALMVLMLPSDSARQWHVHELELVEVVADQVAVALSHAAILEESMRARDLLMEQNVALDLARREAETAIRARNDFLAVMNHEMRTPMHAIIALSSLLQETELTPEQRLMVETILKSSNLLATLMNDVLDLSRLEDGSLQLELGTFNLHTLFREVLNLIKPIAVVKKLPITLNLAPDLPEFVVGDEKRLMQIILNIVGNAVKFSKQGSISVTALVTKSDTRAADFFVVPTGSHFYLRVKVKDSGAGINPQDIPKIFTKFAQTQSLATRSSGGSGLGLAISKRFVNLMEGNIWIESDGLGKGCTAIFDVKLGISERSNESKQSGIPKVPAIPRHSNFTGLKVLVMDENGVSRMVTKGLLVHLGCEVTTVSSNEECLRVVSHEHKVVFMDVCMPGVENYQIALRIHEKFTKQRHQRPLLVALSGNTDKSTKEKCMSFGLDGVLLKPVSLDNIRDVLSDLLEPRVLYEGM
The experiment in a line: fluorescence polarisation; wild type ETR1 pre-incubated with 0.1 mM copper chloride, added to wild type AHP1-GFP; with 100 uM potassium cyanide; 50 mM Tris-HCl pH 7.5, 100 mM KCl, 0.1% beta-D-dodecylmaltoside, 0.002% PMSF.

For experiment [2], the target named is T1, ethylene receptor ethylene response 1 …. The experiment in a line: fluorescence polarisation; wild type ETR1 pre-incubated with 0.1 mM copper chloride, added to wild type AHP1-GFP; with 100 uM ethephon; 50 mM Tris-HCl pH 7.5, 100 mM KCl, 0.1% beta-D-dodecylmaltoside, 0.002% PMSF.
For experiment [3] the target is unchanged. The experiment in a line: fluorescence polarisation; control: wild type ETR1 and wild type AHP1-GFP with cyanide or ethephon but without the copper cofactor; same buffer.

The values below come from publication PMC3166298, “Phosphorylation Alters the Interaction of the Arabidopsis Phosphotransfer Protein AHP1 with Its Sensor Kinase ETR1” (PLoS ONE, 2011).

B1: AHP1-GFP(S65T), wild type Arabidopsis histidine-containing phosphotransfer protein 1 fused to green fluorescent protein (natural protein, UniProt Q9ZNV9 1-154, looked up)
chain: MDLVQKQKSLQDYTKSLFLEGILDSQFLQLQQLQDESNPDFVSQVVTLFFQDSDRILNDLSLSLDQQVVDFKKVDPHVHQLKGSSSSIGAQRVKNACVVFRSFCEQQNVEACHRCLQQVKQEYYLVKNRLETLFKLEQQIVASGGMIPAVELGF
notes: AHP1, Arabidopsis histidine-containing phosphotransfer protein 1; Theoretical molecular weight of AHP1-GFP printed as 45.6 kDa; also called wild type AHP1-GFP
On to B1, for which the Kd in experiment [1] stood at 9 µM; in experiment [2], 7.7 µM; in experiment [3], 1400 nM.
